Kd data for 16 molecules are collected here from paper PMC9603081, “Transcription Factors as Important Regulators of Changes in Behavior through Domestication of Gray Rats: Quantitative Data from RNA Sequencing”.

B1: HBB rs34598529 A-28G (row 10) (dsDNA)
DNA 1: CAGGGCTGGGCATGAAAGTCAGGGCA
DNA 2: TGCCCTGACTTTCATGCCCAGCCCTG
B2: HBD rs35518301 A-31G (dsDNA)
DNA 1: ACAGGACCAGCGTAAAAGGCAGGGCA
DNA 2: TGCCCTGCCTTTTACGCTGGTCCTGT
B3: HBB rs34598529 A-28G (row 2) (dsDNA)
DNA 1: CAGGGCTGGGCATAGAAGTCAGGGCA
DNA 2: TGCCCTGACTTCTATGCCCAGCCCTG
B4: HBB rs281864525 A-25C (dsDNA)
DNA 1: CAGGGCTGGGCATAAACGTCAGGGCA
DNA 2: TGCCCTGACGTTTATGCCCAGCCCTG
B5: HBD WT (dsDNA)
DNA 1: ACAGGACCAGCATAAAAGGCAGGGCA
DNA 2: TGCCCTGCCTTTTATGCTGGTCCTGT
B6: HBD rs34166473 T-30C (dsDNA)
DNA 1: ACAGGACCAGCACAAAAGGCAGGGCA
DNA 2: TGCCCTGCCTTTTGTGCTGGTCCTGT
B7: HBB rs63750953 del -25AA (dsDNA)
DNA 1: CCAGGGCTGGGCATAAGTCAGGGCAG
DNA 2: CTGCCCTGACTTATGCCCAGCCCTGG
B8: HBB rs34500389 C-32T (dsDNA)
DNA 1: CAGGGCTGGGTATAAAAGTCAGGGCA
DNA 2: TGCCCTGACTTTTATACCCAGCCCTG
B9: HBB rs34598529 A-28C (dsDNA)
DNA 1: CAGGGCTGGGCATACAAGTCAGGGCA
DNA 2: TGCCCTGACTTGTATGCCCAGCCCTG
B10: HBB WT (dsDNA)
DNA 1: CAGGGCTGGGCATAAAAGTCAGGGCA
DNA 2: TGCCCTGACTTTTATGCCCAGCCCTG
B11: HBB rs33980857 T-29C (dsDNA)
DNA 1: CAGGGCTGGGCACAAAAGTCAGGGCA
DNA 2: TGCCCTGACTTTTGTGCCCAGCCCTG
B12: HBB rs33931746 A-27T (dsDNA)
DNA 1: CAGGGCTGGGCATATAAGTCAGGGCA
DNA 2: TGCCCTGACTTATATGCCCAGCCCTG
B13: HBB rs33980857 T-29A (dsDNA)
DNA 1: CAGGGCTGGGCAAAAAAGTCAGGGCA
DNA 2: TGCCCTGACTTTTTTGCCCAGCCCTG
B14: HBB rs33980857 T-29G (dsDNA)
DNA 1: CAGGGCTGGGCAGAAAAGTCAGGGCA
DNA 2: TGCCCTGACTTTTCTGCCCAGCCCTG
B15: ASCL3 WT (dsDNA)
DNA 1: TCGAAAAATAAAATAAAATAAAACAT
DNA 2: ATGTTTTATTTTATTTTATTTTTCGA

The target of one series is TBP (TATA-binding protein) (Homo sapiens) (UniProt P20226). The series can be described thus: EMSA. The note with it: EMSA association kinetics, 0.3 nM TBP, four ODN concentrations; buffer, salt, pH and temperature not in the material.
TBP (TATA-binding protein) (Homo sapiens), sequence (P20226 whole entry): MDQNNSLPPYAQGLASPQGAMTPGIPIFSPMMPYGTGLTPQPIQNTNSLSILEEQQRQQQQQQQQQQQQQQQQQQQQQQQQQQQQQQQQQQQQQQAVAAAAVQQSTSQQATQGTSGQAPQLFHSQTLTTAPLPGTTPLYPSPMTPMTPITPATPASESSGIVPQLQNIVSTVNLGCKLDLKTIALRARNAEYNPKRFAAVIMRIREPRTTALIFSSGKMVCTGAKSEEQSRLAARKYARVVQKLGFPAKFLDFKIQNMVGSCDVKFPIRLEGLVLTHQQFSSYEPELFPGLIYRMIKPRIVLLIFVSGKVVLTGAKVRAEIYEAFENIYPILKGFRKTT
Consider “TCGAAAAATAAAACAAAATAAAACAT (double strand) [ASCL3 rs1049743008 T-45c]”, for which the Kd came out at 17 nM.

In a further series the target is T1, TBP (TATA-binding protein) (Homo sapiens, UniProt P20226 1-339). Briefly: EMSA; EMSA association kinetics, 0.3 nM TBP, four ODN concentrations; buffer, salt, pH and temperature not in the material. The note with it: protein: recombinant; label: 32P both strands; blunt.
T1 sequence (P20226 whole entry): as the sequence (P20226 whole entry) above
Turning to B1, the Kd worked out at 499 nM. On the same count and under the same terms, with B2 the figure was 99.8 nM. As to B3, the dissociation constant Kd is 557 nM. In the case of B4, the Kd was 150 nM. Same read-out and setting: with B5 the figure was 70.3 nM; with B6, 170 nM; with B7, 150 nM. Still for that read-out and setting: with B8 the figure was 31.9 nM; with B9, 499 nM; with B10, 50.1 nM. On the same count and under the same terms, the result for B11 reads 140 nM; that for B12, 59.9 nM. Turning to B13, the Kd was 110 nM. Same read-out and setting: the result for B14 reads 110 nM.

For another series, the target named is T1, TBP (TATA-binding protein). The series can be described thus: EMSA; association kinetics, 0.3 nM TBP; Table S2 in vitro -ln(KD) 15.05 disagrees; EMSA association kinetics, 0.3 nM TBP, four ODN concentrations; buffer, salt, pH and temperature not in the material. The note with it: protein: recombinant; label: 32P both strands; blunt.
In the case of B15, the Kd turned out to be 12 nM.
